Results as given in patent US6348573B1, “Compositions and methods for identifying apoptosis signaling pathway inhibitors and activators” (The Regents of the University of Michigan, priority 1998, dated 2002).

How the values were obtained:
293T cells [1] = assay: Apoptosis assay, CIDE transfection; type: cell-based, human; conditions: 293T cells
Protocol: Apoptosis Assays, fluorescence staining of nuclear DNA and DNA fragmentation assay: 5×10^5 293T cells were co-transfected with 0.2 μg of pcDNA3-β-gal plus each expression plasmid in triplicate by the calcium phosphate method as reported [N. Inohara et al, “CLARP, a death effector domain-containing protein interacts with caspase-8 and regulates apoptosis,” Proc. Natl. Acad. Sci. USA 94:10717-10722 (1997a)].
MCF7 were cotransfected with vector control or CIDE-A and β-galactosidase-expressing reporter construct by Lipofectamine (Gibco BRL) according to the manufacturer's instructions. In some experiments, 20 μM zVAD-fmk (benzyloxycarbonyl-Val-Ala-Asp-(OMe)-fluoromethylketone), zFA-fmk (benzyloxycarbonyl-Phe-Ala-(OMc)-fluoromethylketone) and zDEVD-fmk (benzyloxycarbonyl-Asp-Glu-Val-Asp-(OMe)-fluoromethylketone) were added into medium at 8 hr after transfection. zFA-fmk, zVAD-fmk and zDEVD-fmk were obtained from Enzyme Systems. At 24 hours after transfection, cells were fixed, stained for β-galactosidase as described [N. Inohara et al., “CLARP, a death effector domain-containing protein interacts with caspase-8 and regulates apoptosis,” Proc. Natl. Acad. Sci. USA 94:10717-10722 (1997a)] and assayed for morphological features of apoptosis. At least 300 hundred blue-staining cells were counted. Statistical significance was determined by one-way ANOVA followed by Student-Neuman-Keuls post-doc comparisons.
(§1) Nuclear staining with acridine-orange was performed as described [N. Inohara et al., “harakiri, a novel regulator of cell death, encodes a protein that activates apoptosis and interacts selectively with survival-promoting proteins Bcl-2 and Bcl-XL.,” EMBO J. 16:1686-1694 (1997b)]. Genomic DNA was extracted and analyzed for DNA fragmentation as described [X. Liu et al., “Apaf-1, a human protein homologous to C. elegans CED-4, participates in cytochrome c-dependent activation of caspase-3,” Cell 90:405-413 (1997)].

293T cells [2] = assay: DNA fragmentation assay; type: cell-based, human; conditions: co-expression
Protocol: as §1

SHEP cells = assay: Apoptosis in SHEP cells; type: cell-based; conditions: data not shown

Molecule | induction of apoptosis (killing) of 293T cells by expression (293T cells [1]) | apoptosis induced by CLARP (293T cells [1]; co-expression) | apoptosis induced by Fas (293T cells [1]; co-expression) | apoptosis of the CIDE-A (108-199) mutant (293T cells [1]; co-expression) | killing activity of CIDE-A (293T cells [1]; co-expression) | killing activity of CIDE-B (293T cells [1]; co-expression) | DNA fragmentation induced by CIDE-A (293T cells [2]) | induction of apoptosis in SHEP cells (SHEP cells)
DFF45: 45 kDa subunit of the DNA fragmentation factor (protein, UniProt O00273 1-331, looked up) DNA fragmentation factor …: MEVTGDAGVPESGEIRTLKPCLLRRNYSREQHGVAASCLEDLRSKACDILAIDKSLTPVTLVLAEDGTIVDDDDYFLCLPSNTKFVALASNEKWAYNNSDGGTAWISQESFDVDETDSGAGLKWKNVARQLKEDLSSIILLSEEDLQMLVDAPCSDLAQELRQSCATVQRLQHTLQQVLDQREEVRQSKQLLQLYLQALEKEGSLLSKQEESKAAFGEEVDAVDTGISRETSSDVALASHILTALREKQAPELSLSSQDLELVTKEDPKALAVALNWDIKKTETVQEACERELALRLQQTQSLHSLRSISASKASPPGDLQNPKRARQDPT | did not induce apoptosis | inhibited | inhibited | not inhibited | inhibited significantly | inhibited significantly | inhibited | 
CIDE-B: cell death-inducing DFF45-like effector B, mouse protein of 219 amino acids (protein, listed as Mus musculus) MEYLSAFNPNGLLRSVSTVSSELSRRVWNSAPPPQRPFRVCDHKRTVRKGLTAASLQELLDKVLETLLLRGVLTLVLEEDGTAVDSEDFFQLLEDDTCLMVLEQGQSWSPKSGMLSYGLGREKPKHSKDIARITFDVYKQNPRDLFGSLNVKATFYGLYSMSCDFQGVGPKRVLRELLRGTSSQLQGLGHMLLGISSTLRHVVEGADRWQWHGQRHLHS | induced significant killing of 293T cells in a dose dependent manner |  |  |  |  |  |  | induced apoptosis
